In patent publication US20250277048A1 (Regeneron, published 2025):
One block for each binder: values may come before it.

Legend:
[1] = target: T1, human CD40 (hCD40) expressed on cells (human, UniProt P25942 21-277); test: cell-based or functional assay
[2] = target: T1, human CD40 (hCD40) expressed on cells; test: cell-based or functional assay; remark: listed apart in the source
[3] = target: T1, human CD40 (hCD40) expressed on cells; test: cell-based or functional assay; remark: listed apart in the source
[4] = target: T2, human CD40 extracellular domain expressed with a C-terminal myc-myc-hexahistidine tag (human); test: ELISA blocking of 40 nM hCD40-mmH binding to 9His-hCD40L
T2 construct: also called hCD40-MMH; hCD40-mmH
T2 sequence (chain, as listed by the source limits assumed): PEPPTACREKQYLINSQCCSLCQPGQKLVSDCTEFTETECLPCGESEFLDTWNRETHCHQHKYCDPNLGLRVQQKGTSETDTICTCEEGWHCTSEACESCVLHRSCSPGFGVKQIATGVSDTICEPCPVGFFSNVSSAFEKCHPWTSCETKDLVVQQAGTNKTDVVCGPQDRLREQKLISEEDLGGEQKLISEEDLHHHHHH
Text: An ELISA-based blocking assay was developed to determine the ability of C40×CD40 bispecific antibodies to block the binding of the hCD40 monomer to plate-coated hCD40L. The recombinant human CD40-mmH protein (hCD40-MMH; REGN3094; SEQ ID NO: 53) used in the experiments comprises a portion of the human CD40 extracellular domain (amino acids P20-R193) fused to 2×Myc peptide and 6×histadine (SEQ ID NO: 1110) at the C-terminus of human CD40, and the human CD40L (accession #NM_000074.2) with amino acids E108-L261 of the extracellular domain with 9×His-2×(SGGG)-IGER at the N-terminus (9His-hCD40L) was commercially obtained from Biolegend.
In the blocking assay, 9His-hCD40L was passively absorbed at a concentration of 5 μg/mL in PBS on a 96-well microtiter plate overnight at 4° C. […] In a separate 96-well microtiter plate, a fixed amount of 40 nM hCD40-mmH was pre-mixed with one of the following antibodies, at concentrations ranging from 977 pM to 1 μM in PBS+0.5% BSA: (1) CD40×CD40 bispecific antibodies (REGN16431, REGN16432, REGN16634, and REGN16335); (2) parental CD40 mAbs (bivalent antibodies comprising 2 fragment antigen-binding [Fab] arms identical to one of anti-CD40 Fab of CD40×CD40 antibodies); (3) CD40×Irrelevant antibodies (bivalent antibodies that incorporate one Fab arm identical to one of anti-CD40 Fab of CD40×CD40 antibodies and another Fab arm specific to an irrelevant antigen); and (4) human IgG4 with Fc mutation isotype control antibodies (REGN7540 and REGN4513). The fixed concentration of hCD40-mmH was selected to be near the concentration (EC₅₀ value) that generated 50% of the maximal binding to the plate-adhered 9His-hCD40L. After one-hour incubation, the antibody-antigen complexes were transferred to the microtiter plate coated with 9His-hCD40L. After one hour incubation at room temperature, the plates were washed, and plate-bound hCD40-mmH protein was detected with horseradish peroxidase (HRP) conjugated goat anti-c-Myc antibody. The plates were then developed using TMB substrate solution (BD Biosciences) according to the manufacturer's recommended procedure and the absorbance at 450 nm (OD₄₅₀) was measured on a SpectraMax i3×plate reader.

[5] = target: T1, human CD40 (hCD40) expressed on cells; test: flow cytometry, Ramos 2G6.4C10 cells
Method: (§1) Cells were washed with 2% FBS (w/v) in 1×PBS (flow cytometry staining buffer) by centrifugation with benchtop Centrifuge 5810R (Eppendorf®, Hamburg, Germany). Cells were incubated for 30 minutes at 4° C. with serial dilutions of following antibodies ranging from 1.7 pM to 100 nM in flow cytometry staining buffer (1) anti-CD40×CD40 bispecific antibodies, or (2) parental anti-CD40 antibodies (bivalent antibodies comprising 2 fragment antigen-binding [Fab] arms identical to one of the two anti-CD40 Fab of bispecific anti-CD40×CD40 antibodies), or (3) anti-CD40×Irrelevant antibodies (bivalent antibodies that incorporate one Fab arm identical to one of anti-CD40 Fab of anti-CD40×CD40 antibodies and another Fab arm specific to an irrelevant antigen, i.e. birch pollen main allergen Bet v1), or (4) human IgG4 isotype control antibodies with Fc mutation. After washing, cell bound antibodies were detected with 2.5 μg/ml Allophycocyanin (APC)-conjugated goat anti-human IgG antibody specific for the Fcγ fragment (Jackson Immunoresearch, West Grove, PA) for 30 minutes at 4° C. Cells were washed and subsequently fixed with 50% solution of Cytofix™ Fixation Buffer (BD, Franklin Lakes, NJ) in flow cytometry staining buffer for 20 minutes at room temperature. Cells were washed and resuspended in flow cytometry staining buffer and stored at 4° C. for downstream flow cytometry analysis.
(§2) Acquisition of fluorescence signals were recorded on the ZE5 Cell Analyzer (Bio-Rad, Hercules, CA) according to the manufacturer's recommended procedure and flow cytometry data analysis was performed using the open-source R packages flowCore, flowStats, flowDensity, ggCyto, and flowAI. Multiplexed samples were deconvoluted and individual cell populations were identified based on their unique CellTrace™ fluorescence signature. APC Median Fluorescence intensity (MFI) was recorded to indicate the binding intensity of each antibody over a range of concentrations. Antibodies with MFI greater than 1500 at the highest tested concentration (100 nM) were classified as specific binders. In addition, direct binding signals (APC MFI) were analyzed as a function of the antibody concentration and data were fitted with a sigmoidal (four-parameter logistic) dose-response model using GraphPad Prism™ software.

[6] = target: T3, Macaca fascicularis CD40 (mfCD40) expressed on HEK293/D9/mfCD40 cells (Macaca fascicularis, UniProt G7PG38 21-278); test: flow cytometry, HEK293/D9/mfCD40 cells
T3 construct: whole, on cells; also called monkey CD40
Method: as §1, §2

[7] = target: T1, human CD40 (hCD40) expressed on cells; test: flow cytometry, HEK293/D9/hCD40 cells
Method: as §1, §2

[8] = target: T1, human CD40 (hCD40) expressed on cells; test: cell-based or functional assay; remark: listed apart in the source
[9] = target: T1, human CD40 (hCD40) expressed on cells; test: cell-based or functional assay; remark: listed apart in the source
[10] = target: T1, human CD40 (hCD40) expressed on cells; test: cell-based or functional assay; remark: listed apart in the source
[11] = target: T1, human CD40 (hCD40) expressed on cells; test: cell-based or functional assay; remark: listed apart in the source
[12] = target: T1, human CD40 (hCD40) expressed on cells; test: cell-based or functional assay; remark: listed apart in the source
[13] = target: T1, human CD40 (hCD40) expressed on cells; test: cell-based or functional assay; remark: listed apart in the source

T1 sequence (P25942 21-277): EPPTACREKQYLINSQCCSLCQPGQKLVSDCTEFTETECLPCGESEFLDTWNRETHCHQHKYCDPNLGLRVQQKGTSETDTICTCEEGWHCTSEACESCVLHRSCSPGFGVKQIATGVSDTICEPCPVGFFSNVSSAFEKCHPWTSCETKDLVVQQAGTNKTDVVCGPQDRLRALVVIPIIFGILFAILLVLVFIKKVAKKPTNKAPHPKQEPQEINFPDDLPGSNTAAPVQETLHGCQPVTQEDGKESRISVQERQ

IC50, 500 pM hCD40L, Ramos NFkB-luc [1]: 4.07e-11 M
Max % activation, no ligand, Ramos NFkB-luc [1]: 6%
Max % inhibition, 500 pM hCD40L, Ramos NFkB-luc [1]: 88%
IC50, 900 pM hCD40L, Raji NFkB-luc [2]: 4.28e-11 M
Max % activation, no ligand, Raji NFkB-luc [2]: 14%
Max % inhibition, 900 pM hCD40L, Raji NFkB-luc [2]: 90%
IC50, 10 nM hCD40L, THP-1 NFkB-luc [3]: 0.334 nM
Max % activation, no ligand, THP-1 NFkB-luc [3]: 0%
Max % inhibition, 10 nM hCD40L, THP-1 NFkB-luc [3]: 98%
% Blocking at 1 uM mAb [4]: 94%
IC50 [4]: 52 nM
EC50 [5]: 1.3 nM
MFI at 100 nM [5]: 2420 MFI
EC50 [6]: 9.2 nM
MFI at 100 nM [6]: 11800 MFI
EC50 [7]: 1.2 nM
MFI at 100 nM [7]: 20300 MFI
B1: REGN17288 (antibody, V domains shown)
VH: QLQLQESGPGLVRPSETLSLTCSVSGASMNTNNYYWGWIRQPPGKGLEWIGSGYYNGNTYYNPSLKSRVTISVDTSKNQFSLKLNSVTAADTAVYYCARQTPPRIIGSPNIWGQGTMVTVSS
VL: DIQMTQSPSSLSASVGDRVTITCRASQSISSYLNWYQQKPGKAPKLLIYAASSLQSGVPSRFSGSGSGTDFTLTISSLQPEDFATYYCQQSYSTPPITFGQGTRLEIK
notes: also called Parental CD40 (21519)

% max blockade relative to no mAb, IL-10, donor 1 [8]: 84.1%
% max blockade relative to no mAb, IL-10, donor 2 [8]: 91.7%
% max blockade relative to no mAb, IL-10, donor 3 [8]: 91.4%
% max blockade relative to no mAb, TNFa, donor 1 [9]: 53.9%
% max blockade relative to no mAb, TNFa, donor 2 [9]: 71.4%
% max blockade relative to no mAb, TNFa, donor 3 [9]: 73.9%
% max blockade relative to no mAb, IL-6, assay #2 donor 1 [10]: 88.6%
% max blockade relative to no mAb, IL-6, assay #2 donor 2 [10]: 88.3%
% max blockade relative to no mAb, TNFa, assay #2 donor 1 [11]: 62%
% max blockade relative to no mAb, TNFa, assay #2 donor 2 [11]: 50.6%
% max blockade relative to no mAb, IL-6, donor 1 [12]: 84.2%
% max blockade relative to no mAb, IL-6, donor 2 [12]: 91.3%
% max blockade relative to no mAb, IL-6, donor 3 [12]: 91.3%
% max blockade relative to no mAb, IL-10, assay #2 donor 1 [13]: 88.1%
% max blockade relative to no mAb, IL-10, assay #2 donor 2 [13]: 90.5%
B2: REGN11209 (comparator anti-CD40 antibody) (antibody, human IgG1, kappa, N297A, V domains shown)
VH: QVQLVESGGGVVQPGRSLRLSCAASGFTFSSYGMHWVRQAPGKGLEWVAVISYEESNRYHADSVKGRFTISRDNSKITLYLQMNSLRTEDTAVYYCARDGGIAAPGPDYWGQGTLVTVSS
VL: DIVMTQSPLSLTVTPGEPASISCRSSQSLLYSNGYNYLDWYLQKPGQSPQVLISLGSNRASGVPDRFSGSGSGTDFTLKISRVEAEDVGVYYCMQARQTPFTFGPGTKVDIRR
